These results are taken from patent publication US20230135471A1, “UBIQUITIN VARIANTS WITH IMPROVED AFFINITY FOR 53BP1” (Integrated DNA Technologies, Inc., priority 2021, published 2023).

In this experiment the target is 53BP1 fragment (a.a. 1221-1718) fused to an adenylate cyclase fragment (two-hybrid) (UniProt Q12888). Nature of the experiment: cell-based or functional assay.
For the substance “i53 + N25T two-hybrid fusion (designed binder)”, the Experiment 1 Average Enrichment came to 0.12 log2, the Experiment 1 Rep 1 Enrichment is -0.19 log2, the Experiment 1 Rep 2 Enrichment was determined as 0.44 log2 and the Experiment 2 Average Enrichment was 0.29 log2. The substance also displayed an Experiment 2 Rep 1 Enrichment of 0.33 log2 and an Experiment 2 Rep 2 Enrichment of 0.24 log2.
“i53 + T12Y two-hybrid fusion (designed binder)” yielded an Experiment 1 Average Enrichment of 0.25 log2, an Experiment 1 Rep 1 Enrichment of 0.14 log2, an Experiment 1 Rep 2 Enrichment of 0.36 log2 and an Experiment 2 Average Enrichment of 0.35 log2. The substance further gave an Experiment 2 Rep 1 Enrichment of 0.52 log2 and an Experiment 2 Rep 2 Enrichment of 0.17 log2.
Substance “i53 + E18R two-hybrid fusion (designed binder)” came in with an Experiment 1 Average Enrichment of -0.75 log2, an Experiment 1 Rep 1 Enrichment of -1.22 log2, an Experiment 1 Rep 2 Enrichment of -0.28 log2 and an Experiment 2 Average Enrichment of 0.06 log2. Also, the Experiment 2 Rep 1 Enrichment is -0.24 log2 and the Experiment 2 Rep 2 Enrichment was 0.36 log2.
In turn, “i53 + T55R two-hybrid fusion (designed binder)” returned an Experiment 1 Average Enrichment of -0.06 log2, an Experiment 1 Rep 1 Enrichment of 0.11 log2, an Experiment 1 Rep 2 Enrichment of -0.22 log2 and an Experiment 2 Average Enrichment of 0.12 log2. This substance had an Experiment 2 Rep 1 Enrichment of 0.19 log2 and an Experiment 2 Rep 2 Enrichment of 0.05 log2.
In turn, “i53 + S65A two-hybrid fusion (designed binder)” displayed an Experiment 1 Average Enrichment of 1.15 log2, an Experiment 1 Rep 1 Enrichment of 1.29 log2, an Experiment 1 Rep 2 Enrichment of 1.01 log2 and an Experiment 2 Average Enrichment of 0.95 log2. This substance also yielded an Experiment 2 Rep 1 Enrichment of 1.17 log2 and an Experiment 2 Rep 2 Enrichment of 0.73 log2.
In the case of “i53 + P38W two-hybrid fusion (designed binder)”, the Experiment 1 Average Enrichment turned out to be 0.6 log2, the Experiment 1 Rep 1 Enrichment amounted to 0.61 log2, the Experiment 1 Rep 2 Enrichment was 0.6 log2 and the Experiment 2 Average Enrichment was -0.59 log2. The Experiment 2 Rep 1 Enrichment is -0.87 log2 and the Experiment 2 Rep 2 Enrichment is -0.32 log2.
As to “i53 + T14D two-hybrid fusion (designed binder)”, the Experiment 1 Average Enrichment was 2.88 log2, the Experiment 1 Rep 1 Enrichment worked out at 2.9 log2, the Experiment 1 Rep 2 Enrichment was determined as 2.86 log2 and the Experiment 2 Average Enrichment was 1.53 log2. Besides, the Experiment 2 Rep 1 Enrichment worked out at 1.65 log2 and the Experiment 2 Rep 2 Enrichment was 1.4 log2.
Substance “i53 + E18N two-hybrid fusion (designed binder)” returned an Experiment 1 Average Enrichment of -0.45 log2, an Experiment 1 Rep 1 Enrichment of 0.34 log2, an Experiment 1 Rep 2 Enrichment of -1.23 log2 and an Experiment 2 Average Enrichment of 0.1 log2. The substance further registered an Experiment 2 Rep 1 Enrichment of -0.64 log2 and an Experiment 2 Rep 2 Enrichment of 0.85 log2.
As to “i53 + T9E two-hybrid fusion (designed binder)”, the Experiment 1 Average Enrichment was -0.04 log2, the Experiment 1 Rep 1 Enrichment is 0.37 log2, the Experiment 1 Rep 2 Enrichment is -0.44 log2 and the Experiment 2 Average Enrichment was 0.33 log2. The Experiment 2 Rep 1 Enrichment came out at 0.02 log2 and the Experiment 2 Rep 2 Enrichment came to 0.63 log2.
“i53 + N60E two-hybrid fusion (designed binder)” came in with an Experiment 1 Average Enrichment of 0.66 log2, an Experiment 1 Rep 1 Enrichment of 0.9 log2, an Experiment 1 Rep 2 Enrichment of 0.43 log2 and an Experiment 2 Average Enrichment of 0.25 log2. The substance further registered an Experiment 2 Rep 1 Enrichment of 0.13 log2 and an Experiment 2 Rep 2 Enrichment of 0.38 log2.
Substance “i53 + N25E two-hybrid fusion (designed binder)” displayed an Experiment 1 Average Enrichment of 0.56 log2, an Experiment 1 Rep 1 Enrichment of 0.28 log2, an Experiment 1 Rep 2 Enrichment of 0.84 log2 and an Experiment 2 Average Enrichment of 0.62 log2. In addition, the Experiment 2 Rep 1 Enrichment was 0.61 log2 and the Experiment 2 Rep 2 Enrichment was 0.64 log2.
